Laboratory results reported in PMC5550427, “A family of archaea-like carboxylesterases preferentially expressed in the symbiotic phase of the mycorrhizal fungus Tuber melanosporum” (Scientific Reports, 2017).
Values belong to the molecule of their own block, whether it stands above or below them.

What was measured:
[1] = molecular target: TmelEST2 (Tuber melanosporum); assay: SEC; Superdex 200 HR10/30, 200 µg purified protein per run, 25 mM Tris-HCl pH 7.5, 150 mM NaCl, non-denaturing; size unchanged on β-mercaptoethanol supplementation
[2] = molecular target: TmelEST1 (Tuber melanosporum); assay: as above
[3] = tested on: T1, TmelEST1; assay: pNP release at […] nm, Michaelis-Menten fit; assay type: biochemical, Tuber melanosporum; conditions: 25 mM Na-phosphate pH 7.0, 25 °C; Triton X-100 stabilized enzyme
T1 construct: signal peptide (first 18 residues) removed; N-terminal 6xHis cut with thrombin; E. coli BL21-CodonPlus(DE3)-RIL; ~35 kDa subunit, dimer (~65 kDa); salt-bridge residues Glu284, Arg297; Arg242

[4] = tested on: T2, TmelEST3; assay: pNP release at […] nm, Michaelis-Menten fit; assay type: biochemical, Tuber melanosporum; conditions: 25 mM Na-phosphate pH 7.0, 25 °C; Triton X-100 stabilized enzyme
T2 construct: signal peptide (first 18 residues) removed; N-terminal 6xHis cut with thrombin; E. coli BL21-CodonPlus(DE3)-RIL; ~35 kDa subunit, dimer (~65 kDa); salt-bridge residues Glu291, Arg304

[5] = tested on: T2, TmelEST3; assay: pH-shift assay with phenol red, A560; assay type: biochemical, Tuber melanosporum; conditions: 2 mM Tris-HCl pH 8, 25 °C; 1-30 mM substrate; preliminary data; read-out: estimated Km
[6] = tested on: T1, TmelEST1; assay: pH-shift assay with phenol red, A560; assay type: biochemical, Tuber melanosporum; conditions: 2 mM Tris-HCl pH 8, 25 °C; 0.25-5 mM substrate; read-out: apparent Km
[7] = molecular target: TmelEST3 (Tuber melanosporum); assay: SEC; Superdex 200 HR10/30, 200 µg purified protein per run, 25 mM Tris-HCl pH 7.5, 150 mM NaCl, non-denaturing; size unchanged on β-mercaptoethanol supplementation
[8] = substrate: CCCCC(=O)Oc1ccc([N+](=O)[O-])cc1; assay: purified protein; assay type: biochemical, Tuber melanosporum; conditions: 25 mM Na-phosphate pH 7.0, 25 °C, Triton X-100 stabilized enzyme
[9] = substrate: CCCC(=O)Oc1ccc([N+](=O)[O-])cc1; assay: purified protein; assay type: biochemical, Tuber melanosporum; conditions: 25 mM Na-phosphate pH 7.0, 25 °C, Triton X-100 stabilized enzyme
[10] = substrate: COC(=O)c1ccccc1O; assay: pH-shift assay with phenol red, A560; assay type: biochemical, Tuber melanosporum; conditions: 2 mM Tris-HCl pH 8, 25 °C, 1-30 mM substrate, preliminary data

Molecule: TmelEST2 (enzyme)
stoichiometry N [1]: 2

Molecule: TmelEST1 (enzyme)
stoichiometry N [2]: 2

Molecule: COC(=O)Cc1c[nH]c2ccccc12 [indole-3-acetic methyl ester]
Km [5]: ~3350 µM

Molecule: CCOC(=O)/C=C/c1ccc(O)c(OC)c1 [ethyl ferulate]
Km [6]: 880 µM

Molecule: TmelEST3 (enzyme)
stoichiometry N [7]: 2

B1: TmelEST2 (Tuber melanosporum Mel28) (protein)
chain: ETPAPSCPVTNVTTPQLDPITQAYADAISSRPSLFAFPLPEIRDGYQSNVSDPSTEFTTKILSLPVGPTGNVTAYLYKPVSGEREKGKDLLPVIAYFHGGGWVFGGPKSYRGLITNLIRESGAAVFFVDYTLTPKVAYPVPNEQCYAAVQWLLEHGEKLGVDPTNMGFGGDSAGGELSSSVSLLSIKRKTPLPKFQVLIYPATDLACESATFKEFPNGPGLTTDEIRFAASLFTPDPKSRLEDVASPGRASDEDLAKFPETLIVVAEVDPIRQQGEDFGRRLQKLGVRAAIIRVLGTIHGFASIDVLSEAPGAKATIELIGYKFKKALH
notes: signal peptide (first 18 residues) removed; N-terminal 6xHis cut with thrombin; E. coli BL21-CodonPlus(DE3)-RIL; ~35 kDa subunit, dimer (~65 kDa); structure residues 34-347; triad Ser190, Asp287, His317
Km [8]: 44 ± 7 µM
Vmax [8]: 4790 µmol/min/mg
kcat [8]: 2870 s⁻¹
kcat/Km [8]: 6.53e+07 M⁻¹ s⁻¹
Km [9]: 49 ± 8 µM
Vmax [9]: 3840 µmol/min/mg
kcat [9]: 2300 s⁻¹
kcat/Km [9]: 4.7e+07 M⁻¹ s⁻¹
Km [10]: 750 µM
kcat [10]: 1 s⁻¹

Now from value to molecule:

Km [3]: 160 ± 20 µM
Km [4]: 137 ± 20 µM
Molecule: CCCCC(=O)Oc1ccc([N+](=O)[O-])cc1 [C5, pNP-valerate]

Km [3]: 140 ± 14 µM
Km [4]: 109 ± 6 µM
Molecule: CCCC(=O)Oc1ccc([N+](=O)[O-])cc1 [C4, p-nitrophenyl-butyrate]
